The record followed here is the RNAGym collection of RNA variant scans (doi:10.1093/nar/gkz1192).

Sequences and labels used below:
B1: CPEB3 Ribozyme (parent)
chain: UAACAGGGGGCCACAGCAGAAGCGUUCACGUCGCAGCCCCUGUCAGAUUCUGGUGAAUCUGCGAAUUCUGCUGUAUAUCUC

The variants in the series derive from B1. The series is described as follows: self-cleavage, relative activity (ratio to wild type); higher = more cleavage; in vitro, sequencing. The method, boiled down: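 For each CPEB3 ribozyme variant, relative activity is its cleaved/total read fraction divided by the unmutated ribozyme's. Barcoded error-prone PCR libraries were transcribed by T7 RNA polymerase (5 hours, 37°C) and held in DNase I for 15 min before an EDTA stop, with cleavage occurring throughout. Template-switching reverse transcription and Illumina sequencing were used to read the RNAs. A 5-read minimum applied, and results are the mean of three batches.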
For UAACAGGGGGCCACAGCAGAUGCGUUCACGUCGCAGCCCCAGUCAGAUUCUGGUGAAUCUGCGAAUUCUGCUGUAUAUCUC, the self-cleavage was 0.26.
Under UAACAGGGGGCCACAGCAGAUGCGUUCACGUCGCAGCCCCCGUCAGAUUCUGGUGAAUCUGCGAAUUCUGCUGUAUAUCUC stands 0.34; under UAACAGGGGGCCACAGCAGAUGCGUUCACGUCGCAGCCCCUGUCAGAUUCUGGUGGAUCUGCGAAUUCUGCUGUAUAUCUC, 0.25; under UAACAGGGGGCCACAGCAGAUGCGUUCACGUCGCAGCCCCUGUCAGAUUCUGGUGCAUCUGCGAAUUCUGCUGUAUAUCUC, 0.18.
In the case of UAACAGGGGGCCACAGCAGAUGCGUUCACGUCGCAGCCCCUGUCAGAUUCUGGUGUAUCUGCGAAUUCUGCUGUAUAUCUC, the self-cleavage was found to be 0.2.
With UAACAGGGGGCCACAGCAGAUGCGUUCACGUCGCAGCCCCUGUCAGACUCUGGUGAAUCUGCGAAUUCUGCUGUAUAUCUC, the self-cleavage worked out at 0.27.
Regarding UAACAGGGGGCCACAGCAGAUGCGUUCACGUCGCAGCCCCUGUCAGAUUCUGGUGAAUCUGCGAGUUCUGCUGUAUAUCUC, the self-cleavage is 0.34.
As for UAACAGGGGGCCACAGCAGAUGCGUUCACGUCGCAGCCCCUGUCAGAUUCUGGUGAAUCUGUGAAUUCUGCUGUAUAUCUC, the self-cleavage worked out at 0.01.
Take UAACAGGGGGCCACAGCAGAUACGUUCACGUCGCAGCCCCUGUCAGAUUCUGGUGAAUCUGCGAAUUCUGCUGUAUAUCUC: the self-cleavage was determined as 0.29.
Under UAACAGGGGGCCACAGCAGAUGCGUUCAAGUCGCAGCCCCUGUCAGAUUCUGGUGAAUCUGCGAAUUCUGCUGUAUAUCUC stands 0.21; under UAACAGGGGGCCACAGCAGAUGCGUUCAUGUCGCAGCCCCUGUCAGAUUCUGGUGAAUCUGCGAAUUCUGCUGUAUAUCUC, 0.3.
Under UAACAGGGGGCCACAGCAGAUGCGUUCACGUCGCAGCCCCUGUCAGAUUCUAGUGAAUCUGCGAAUUCUGCUGUAUAUCUC stands 0.33; under UAACAGGGGGCCACAGCAGAUGCGUUCACGUCGCAGUCCCUGUCAGAUUCUGGUGAAUCUGCGAAUUCUGCUGUAUAUCUC, 0.18.
Under UAACAGGGGGCCACAGCAGAUGCGCUCACGUCGCAGCCCCUGUCAGAUUCUGGUGAAUCUGCGAAUUCUGCUGUAUAUCUC stands 0.29; under UAACAGGGGGCCACAGCAGAUGCGAUCACGUCGCAGCCCCUGUCAGAUUCUGGUGAAUCUGCGAAUUCUGCUGUAUAUCUC, 0.22; under UAACAGGGGGCCACAGCAGAUGCGUUCACGUCGCAGCCCCUGUCAGAUUCUGGUGAAUCUGCGAAUUCUGGUGUAUAUCUC, 0.09.
Take UAACAGGGGGCCACAGCAGAUGCGUUCACGUCGCAGCCCCUGUCAGAUUCUGGUGAAUCUGCGAAUUCUGUUGUAUAUCUC: the self-cleavage came out at 0.16.
In the case of UAACAGGGGGCCACAGCAGAUGCGUUUACGUCGCAGCCCCUGUCAGAUUCUGGUGAAUCUGCGAAUUCUGCUGUAUAUCUC it was 0.14; in that of UAACAGGGGGCCACAGCAGAUGCGUUGACGUCGCAGCCCCUGUCAGAUUCUGGUGAAUCUGCGAAUUCUGCUGUAUAUCUC, 0.07; in that of UAACAGGGGGCCACAGCAGAUGCGUUCACAUCGCAGCCCCUGUCAGAUUCUGGUGAAUCUGCGAAUUCUGCUGUAUAUCUC, 0.1.
UAACAGGGGGCCACAGCAGAUGCGUUCACGUCGCAGCCCCUGUCGGAUUCUGGUGAAUCUGCGAAUUCUGCUGUAUAUCUC: the self-cleavage was 0.29.
Under UAACAGGGGGCCACAGCAGAUGCGUUCACGUCGCAGCCCCUGUCUGAUUCUGGUGAAUCUGCGAAUUCUGCUGUAUAUCUC stands 0.17; under UAACAGGGGGCCACAGCAGAUGCGUUCACGUCGCAGCCCCUGUCCGAUUCUGGUGAAUCUGCGAAUUCUGCUGUAUAUCUC, 0.1; under UAACAGGGGGCCACAGCAGAUGCGUUCACGCCGCAGCCCCUGUCAGAUUCUGGUGAAUCUGCGAAUUCUGCUGUAUAUCUC, 0.3.
In the case of UAACAGGGGGCCACAGCAGAUGCGUUCACGACGCAGCCCCUGUCAGAUUCUGGUGAAUCUGCGAAUUCUGCUGUAUAUCUC it was 0.13; in that of UAACAGGGGGCCACAGCAGAUGCGUUCACGGCGCAGCCCCUGUCAGAUUCUGGUGAAUCUGCGAAUUCUGCUGUAUAUCUC, 0.13.
Under UAACAGGGGGCCACAGCAGAUGCGUUCACGUCACAGCCCCUGUCAGAUUCUGGUGAAUCUGCGAAUUCUGCUGUAUAUCUC stands 0.09.
On to UAACAGGGGGCCACAGCAGAUGCAUUCACGUCGCAGCCCCUGUCAGAUUCUGGUGAAUCUGCGAAUUCUGCUGUAUAUCUC, for which the self-cleavage was determined as 0.33.
Under UAACAGGGGGCCACAGCAGAUGCGUUCACGUCGCAGCCCUUGUCAGAUUCUGGUGAAUCUGCGAAUUCUGCUGUAUAUCUC stands 0.15; under UAACAGGGGGCCACAGCAGAUGGGUUCACGUCGCAGCCCCUGUCAGAUUCUGGUGAAUCUGCGAAUUCUGCUGUAUAUCUC, 0.07; under UAACAGGGGGCCACAGCAGAUGUGUUCACGUCGCAGCCCCUGUCAGAUUCUGGUGAAUCUGCGAAUUCUGCUGUAUAUCUC, 0.24.
UAACAGGGGGCCACAGCAGAUGAGUUCACGUCGCAGCCCCUGUCAGAUUCUGGUGAAUCUGCGAAUUCUGCUGUAUAUCUC: the self-cleavage came out at 0.22.
In the case of UAACAGGGGGCCACAGCAGAUGCGUUCACGUCGCAGCCCCUGUCAGAUUCUGGUGAAUCUGCGGAUUCUGCUGUAUAUCUC it was 0.18; in that of UAACAGGGGGCCACAGCAGAUGCGUUCACGUCGCAGCCCCUGUCAGAUUCUGGUGAAUCUGCGUAUUCUGCUGUAUAUCUC, 0.13; in that of UAACAGGGGGCCACAGCAGAUGCGUUCACGUCGCAGCUCCUGUCAGAUUCUGGUGAAUCUGCGAAUUCUGCUGUAUAUCUC, 0.29.
For the variant UAACAGGGGGCCACAGCAGAUGCGUUCACGUCGCAGCCCCUGUCAGAUUCUGGUGAAUCUGCUAAUUCUGCUGUAUAUCUC, the self-cleavage worked out at 0.28.
In the case of UAACAGGGGGCCACAGCAGAUGCGUUCACGUCGCAGCCCCUGUCAGAUUCUGGUGAAUCUGCCAAUUCUGCUGUAUAUCUC it was 0.28; in that of UAACAGGGGGCCACAGCAGAUGCGUUCACGUCGCAGCCCCUGUCAGAUUCUGGUGAAUCUGCAAAUUCUGCUGUAUAUCUC, 0.5; in that of UAACAGGGGGCCACAGCAGAUGCGUUCACGUCGCAGCCCCUGUAAGAUUCUGGUGAAUCUGCGAAUUCUGCUGUAUAUCUC, 0.11.
In the case of UAACAGGGGGCCACAGCAGAUGCGUUCACGUCGCGGCCCCUGUCAGAUUCUGGUGAAUCUGCGAAUUCUGCUGUAUAUCUC it was 1.03; in that of UAACAGGGGGCCACAGCAGAUGCGUUCACGUCGCUGCCCCUGUCAGAUUCUGGUGAAUCUGCGAAUUCUGCUGUAUAUCUC, 0.28; in that of UAACAGGGGGCCACAGCAGAUGCGUUCACGUCGCAGCCCCUGUCAGAUCCUGGUGAAUCUGCGAAUUCUGCUGUAUAUCUC, 0.22.
For the variant UAACAGGGGGCCACAGCAGAUGCGUUCACGUCGCAGCCCCUGCCAGAUUCUGGUGAAUCUGCGAAUUCUGCUGUAUAUCUC, the self-cleavage turned out to be 0.26.
UAACAGGGGGCCACAGCAGAUGCGUUCACGUCGCAGCCCCUGACAGAUUCUGGUGAAUCUGCGAAUUCUGCUGUAUAUCUC: the self-cleavage is 0.5.
In the case of UAACAGGGGGCCACAGCAGAUGCGUUCACGUCGCAGCCCCUGUCAGAUUCUGGUGAAUCUGCGAAUUAUGCUGUAUAUCUC it was 0.32.
Under UAACAGGGGGCCACAGCAGAUGCGUUCACGUCGCAGCCCCUGUCAGAUUCUGGUGAAUCUGCGAAUUUUGCUGUAUAUCUC stands 0.44; under UAACAGGGGGCCACAGCAGAUGCGUUCACGUCGCAGCCCCUGUCAGAUUCUGAUGAAUCUGCGAAUUCUGCUGUAUAUCUC, 0.29; under UAACAGGGGGCCACAGCAGAUGCGUUCACGUCGCAGCCACUGUCAGAUUCUGGUGAAUCUGCGAAUUCUGCUGUAUAUCUC, 0.31.
UAACAGGGGGCCACAGCAGAUGCGUUCACGUCGCAGCCUCUGUCAGAUUCUGGUGAAUCUGCGAAUUCUGCUGUAUAUCUC: the self-cleavage turned out to be 0.2.
Under UAACAGGGGGCCACAGCAGAUGCGUCCACGUCGCAGCCCCUGUCAGAUUCUGGUGAAUCUGCGAAUUCUGCUGUAUAUCUC stands 0.29; under UAACAGGGGGCCACAGCAGAUGCGUACACGUCGCAGCCCCUGUCAGAUUCUGGUGAAUCUGCGAAUUCUGCUGUAUAUCUC, 0.35.
Under UAACAGGGGGCCACAGCAGAUGCGUUCACGUCGCAGCCCCUGUCAGAUUCUGGUGAAUCUGCGAAUUCUGCUAUAUAUCUC stands 0.88; under UAACAGGGGGCCACAGCAGAUGCGUUCACGUCGCAGCCCCUCUCAGAUUCUGGUGAAUCUGCGAAUUCUGCUGUAUAUCUC, 0.29; under UAACAGGGGGCCACAGCAGAUGCGUUCACGUAGCAGCCCCUGUCAGAUUCUGGUGAAUCUGCGAAUUCUGCUGUAUAUCUC, 0.14.
Under UAACAGGGGGCCACAGCAGAUGCGUUCACGUCGCAGCCCCUGUCAGAUUCUGGUGAAUCUGCGAAUUCUGCUGUAUAUCUU stands 0.29.
Regarding UAACAGGGGGCCACAGCAGAUGCGUUCACGUCGCAGCCCCUGUCAGAUUCUGGUGAAUCUGCGAAUUCUGCUGUAUAUCUA, the self-cleavage was 0.45.
Under UAACAGGGGGCCACAGCAGAUGCGUUCACGUCGCAGCCCCUGUCAGAUUCUGGUGAAUCUGCGAAUUCUGCUGUAUGUCUC stands 0.37.
Under UAACAGGGGGCCACAGCAGAUGCGUUCACGUCGCAGCCCCUGUCAGUUUCUGGUGAAUCUGCGAAUUCUGCUGUAUAUCUC stands 0.1; under UAACAGGGGGCCACAGCAGAUGCGUUCACGUCGCAGCCCCUGUCAGGUUCUGGUGAAUCUGCGAAUUCUGCUGUAUAUCUC, 0.38.
Regarding UAACAGGGGGCCACAGCAGAUGCGUUCACGUCGCAGCCCCUGUCAGAUUUUGGUGAAUCUGCGAAUUCUGCUGUAUAUCUC, the self-cleavage turned out to be 0.4.
Regarding UAACAGGGGGCCACAGCAGAUGCGUUCACGUCGCAGCCCCUGUCAGAUUAUGGUGAAUCUGCGAAUUCUGCUGUAUAUCUC, the self-cleavage stood at 0.18.
In the case of UAACAGGGGGCCACAGCAGAUGCGUUCACGUCGCAGCCCCUGUCAGAUUCAGGUGAAUCUGCGAAUUCUGCUGUAUAUCUC it was 0.43; in that of UAACAGGGGGCCACAGCAGAUGCGUUCACGUCGCAGCCCCUGUCAGAUUCCGGUGAAUCUGCGAAUUCUGCUGUAUAUCUC, 0.34; in that of UAACAGGGGGCCACAGCAGAUGCGUUCACGUCGCAGCCCCUGUCAGAUUCUGGUGAAUCUACGAAUUCUGCUGUAUAUCUC, 0.34.
In the case of UAACAGGGGGCCACAGCAGAUGCGUUCACGUCGCAGCCCCUGUCAGAUUCUGGUGAAUCUGCGAAUUCUCCUGUAUAUCUC it was 0.05.
Under UAACAGGGGGCCACAGCAGAUGCGUUCACGUCGCAGCCCCUGUCAGAUUCUGGUGAAUCUGCGAAUUCUGCUGUGUAUCUC stands 0.27.
UAACAGGGGGCCACAGCAGAUGCGUUCACGUCGCAGCCCCUGUCAGAUUCUGGUGAAUCUGCGAAUUCUGCUGUUUAUCUC: the self-cleavage came to 0.37.
Regarding UAACAGGGGGCCACAGCAGAUGCGUUCACGUCGCAGCCCCUGUCAGAUUCUGGUGAGUCUGCGAAUUCUGCUGUAUAUCUC, the self-cleavage was 0.33.
